120 sequences from the supplement of paper PMC10126150 can be followed below.

± gives the standard deviation of the averaged measurements.
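Note: ATP exposure 15 min at 22 °C before imaging.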

In the series the test system is ATP. Put plainly: switch fluorescence ratio, 500 uM ATP over buffer (Cy3 cluster intensity, sum of 5 cycles each) (fold (ratio)); higher = stronger signal-on switching upon ATP binding; sequences stand for … in TCGTCGGCAGCGTCAGATGTGTATAAGAGACAGTTTTTTTTTTTTTTTTTTTTTTTTT…TC. The conditions noted are these: aptamer strand: ATP DNA aptamer (quencher-CACCTGGGGGAGTATTGCGGAGGAAGG + anchor), 100 nM annealed; ATP concentration: 500 uM. In a few lines:
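After annealing to 100 nM quencher-labelled ATP aptamer, Cy3-labelled switching-strand clusters on a modified Illumina MiSeq flow-cell were imaged in selection buffer. A second image followed after 15 min with 500 uM ATP at 22 °C, and five such buffer/ATP cycles were done, each separated by NaOH stripping and re-annealing. The fluorescence ratio, averaged per switch-domain sequence, is summed target-cycle over summed buffer-cycle Cy3 intensity per cluster, with clusters outside 100-1000 RFU excluded.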
On to TGTTGTCAGG, for which the switch fluorescence ratio was found to be 0.99 ± 0.025. With TTATGGGGAA, the switch fluorescence ratio was determined as 0.987 ± 0.015. Turning to CGGTGTGAGG, the switch fluorescence ratio was 0.988 ± 0.031. Turning to CGTGGGAATA, the switch fluorescence ratio was determined as 0.9992 ± 0.0082.

In the case of TGATTCCGGT, the switch fluorescence ratio is 0.992 ± 0.013.

For GGCCAAATCC, the switch fluorescence ratio was 1.006 ± 0.0056. Consider GAAGTTATCG, for which the switch fluorescence ratio came to 0.982 ± 0.022. Consider ACGTGCTTAT, for which the switch fluorescence ratio turned out to be 0.976 ± 0.013.

Consider ATAAATTAGT, for which the switch fluorescence ratio was 0.998 ± 0.018.

Consider ATCATTAGTA, for which the switch fluorescence ratio is 0.999 ± 0.021. As for CGATTTTAGG, the switch fluorescence ratio came out at 1 ± 0.035. CCCTGATCTG: the switch fluorescence ratio stood at 1.02 ± 0.011. GGTATATTAG: the switch fluorescence ratio was found to be 0.99 ± 0.028. For TTCTTTTATA, the switch fluorescence ratio was 0.99 ± 0.04. In the case of GGGGATGCAT, the switch fluorescence ratio came to 1.01 ± 0.059.

With TTATTTAGCT, the switch fluorescence ratio came out at 1.01 ± 0.017. As for TACATGCATG, the switch fluorescence ratio was 1.001 ± 0.0031. Regarding TATACTCAGG, the switch fluorescence ratio was found to be 1.05 ± 0.029. As to TCAACGGGTA, the switch fluorescence ratio was determined as 1.01 ± 0.021.

For the sequence GGATATCGTT, the switch fluorescence ratio was determined as 1.032 ± 0.0059. GAGTAAGAGC: the switch fluorescence ratio is 1.017 ± 0.0075. In the case of TGGGGTGGGT it was 1 ± 0.039. For ATTTTATAGT, the switch fluorescence ratio is 1 ± 0.055.

For CGATCCGGGA, the switch fluorescence ratio turned out to be 0.9982 ± 0.006. Turning to CGCGGGCCGT, the switch fluorescence ratio stood at 0.981 ± 0.024. Turning to TAATGGGCTT, the switch fluorescence ratio came to 0.997 ± 0.012. Consider TCGGGTTGAC, for which the switch fluorescence ratio was 1.02 ± 0.025. In the case of GCTGCTAGTG, the switch fluorescence ratio stood at 0.97 ± 0.017. On to GGGATGTTAA, for which the switch fluorescence ratio was determined as 0.976 ± 0.038. In the case of AGTGTGCGTG it was 0.9812 ± 0.0076. As for GGCGTAGTGC, the switch fluorescence ratio worked out at 1.02 ± 0.016. Regarding TCGTTTGGGG, the switch fluorescence ratio amounted to 1.05 ± 0.061. For the sequence TTGGCAAATG, the switch fluorescence ratio was found to be 0.988 ± 0.025. Turning to GTTTAACGGT, the switch fluorescence ratio worked out at 1 ± 0.012. In the case of TATGTTTTCT it was 1.01 ± 0.039; in that of GAAGGAAGAT, 0.9708 ± 0.0069; in that of GAGAGGGTCA, 0.98 ± 0.025. For TGTTGCCTGG, the switch fluorescence ratio was 0.978 ± 0.023. On to TGCCGGTAAA, for which the switch fluorescence ratio turned out to be 1.01 ± 0.051. In the case of TAAGAAGTAT it was 0.999 ± 0.034; in that of GTGGGGAGAG, 0.9602 ± 0.0078; in that of GGGTGAAAGG, 0.996 ± 0.025.

With AATTCGAGAT, the switch fluorescence ratio was 1.01 ± 0.034. In the case of TGATTATGGA it was 0.995 ± 0.045. On to TACGAGTGGT, for which the switch fluorescence ratio worked out at 0.99394 ± 0.00054.

As for CGCGAAGTTG, the switch fluorescence ratio turned out to be 0.999 ± 0.057. In the case of GGTGTTGGAG it was 0.997 ± 0.019; in that of CAATGTTATC, 1.01 ± 0.017; in that of TGCAGCTGGA, 0.977 ± 0.022. Turning to CGGTCGTTGT, the switch fluorescence ratio is 1.02 ± 0.03. As to GCAGAGGGGT, the switch fluorescence ratio amounted to 1.04 ± 0.066. TGAGTTGACT: the switch fluorescence ratio was 1 ± 0.015.

For the sequence ACTTTGGCGT, the switch fluorescence ratio is 1.03 ± 0.014. In the case of TAGAACATGG it was 0.964 ± 0.061; in that of CATTGAATAC, 1.36 ± 0.061. In the case of TTAGGGTCGG it was 1 ± 0.036; in that of GCCTTGTATG, 0.976 ± 0.03; in that of TGTTTTGATG, 1.04 ± 0.078. Consider CAAGTCAAAG, for which the switch fluorescence ratio was 0.996 ± 0.039.

In the case of CAAGAGCGGT, the switch fluorescence ratio was 1.02 ± 0.047. As for CTGTGTGTTT, the switch fluorescence ratio was 0.9781 ± 0.0072. Consider CATAATGCGG, for which the switch fluorescence ratio came to 1.005 ± 0.0012. As for ATATATAGTT, the switch fluorescence ratio is 1.043 ± 0.01. In the case of TTTGGTGGTT, the switch fluorescence ratio amounted to 1.03 ± 0.059. TTTGCCGCCC: the switch fluorescence ratio came to 1.145 ± 0.0012. With TGAAGGGTGC, the switch fluorescence ratio stood at 1.02 ± 0.054. For TGTGTCTAGT, the switch fluorescence ratio is 0.974 ± 0.0013.

Regarding CCAGCGGGGC, the switch fluorescence ratio stood at 1.05 ± 0.019.

Turning to CATGTTGAGC, the switch fluorescence ratio was found to be 0.9959 ± 0.0081.

On to TCTTGAGCTT, for which the switch fluorescence ratio worked out at 1.04 ± 0.03. On to AGCTTCTAAC, for which the switch fluorescence ratio stood at 1.025 ± 0.0036. In the case of GCATGTTAGG it was 1.01 ± 0.063; in that of TTCAAATGAA, 1 ± 0.016. As for TTACGGTATA, the switch fluorescence ratio is 1.17 ± 0.038. GAGGGGCCGA: the switch fluorescence ratio turned out to be 0.973 ± 0.016. For the sequence AACGAATTCA, the switch fluorescence ratio stood at 1.05 ± 0.017. On to CCCATTTTGC, for which the switch fluorescence ratio was determined as 1.032 ± 0.0067. CGGTGAAAAT: the switch fluorescence ratio was 0.97 ± 0.027. In the case of AACATTTTTC it was 1.01 ± 0.021; in that of AGGTAGTTTT, 0.982 ± 0.011; in that of TTCGTATATC, 1.7 ± 0.93. In the case of CACGGGGGTG it was 0.987 ± 0.03; in that of CTGGCCAGTT, 1 ± 0.013. Consider ATTGGGCAGC, for which the switch fluorescence ratio was found to be 1 ± 0.027. With GTTTTTTGGG, the switch fluorescence ratio came out at 1 ± 0.042. Consider AAACACGTTG, for which the switch fluorescence ratio worked out at 1.018 ± 0.0094. Take ATAATGGGGG: the switch fluorescence ratio amounted to 0.977 ± 0.027.

As to CCCGATTTTG, the switch fluorescence ratio came out at 1.023 ± 0.0069. As for AGGAGACAAG, the switch fluorescence ratio was determined as 0.948 ± 0.053. Turning to CGGGAGACAT, the switch fluorescence ratio came to 1.01 ± 0.014. Regarding TATACATTGG, the switch fluorescence ratio was 0.98862 ± 5.5e-05. On to GAGGAGGGAC, for which the switch fluorescence ratio was determined as 0.989 ± 0.05. Turning to CGCTACTTGA, the switch fluorescence ratio was found to be 1.027 ± 0.0082. Take TATTGGGGAG: the switch fluorescence ratio is 1.13 ± 0.29. In the case of CGACAGATGT it was 1.01 ± 0.018. For GTGCGCAGAA, the switch fluorescence ratio came to 0.988 ± 0.015. In the case of AGTTGGGTTG it was 1 ± 0.023. Regarding TACCCTGAAA, the switch fluorescence ratio was found to be 1.022 ± 0.0035. In the case of ATTTACAAGT, the switch fluorescence ratio turned out to be 1.003 ± 0.0063. As to CATTTGGCGG, the switch fluorescence ratio was 1 ± 0.013. Consider ATCCGGACTT, for which the switch fluorescence ratio worked out at 1.02 ± 0.034. For TGGGGCAAAC, the switch fluorescence ratio is 1.87 ± 0.81.

As to ACTTTGTATG, the switch fluorescence ratio turned out to be 1 ± 0.017. As to GCTTGGATAA, the switch fluorescence ratio turned out to be 1.02 ± 0.032. In the case of CATGCGGATG it was 1.001 ± 0.0056; in that of AGCGGTTTCG, 0.986 ± 0.023. In the case of TGTTTGGCTG, the switch fluorescence ratio turned out to be 1.054 ± 0.0084. For TGGCGATTGG, the switch fluorescence ratio came out at 0.985 ± 0.023. For CGGGTTGGAA, the switch fluorescence ratio was found to be 0.9731 ± 0.0091. Consider CTAACAGCGA, for which the switch fluorescence ratio stood at 1.297 ± 0.0027.

With TTCTAAGTA, the switch fluorescence ratio is 1.021 ± 0.0044.

As for ATGTTTTATA, the switch fluorescence ratio worked out at 1.02 ± 0.023. In the case of TGTGGTTGTT it was 1.02 ± 0.041; in that of AATTCGCACG, 1.034 ± 0.006. As to TGCCGCAAAA, the switch fluorescence ratio was 1.82 ± 0.85. With AGATTGATGG, the switch fluorescence ratio turned out to be 0.9848 ± 0.0026. In the case of CTTTTGTAAT it was 1.01 ± 0.014; in that of TAAATGAGGA, 1.03 ± 0.047. Regarding ACAAACGGGT, the switch fluorescence ratio came to 1.44 ± 0.073. On to TATACGAAAT, for which the switch fluorescence ratio was 1.49 ± 0.58.
